Assay results as given in paper PMC12344017 (Nature Communications, 2025).

Molecular target: the molecule itself
Assay: cryo-EM structure

B1: MscS/YnaI chimera (other, E. coli | Escherichia coli, UniProt P0C0S1 1-31, looked up)
chain: MEDLNVVDSINGAGSWLVANQALLLSYAVNIIDFICTSLIAVILTIKLFLLINQFEKQQIKKGRDITSARIMSRIIKITIIVVLVLLYGEHFGMSLSGLLTFGGIGGLAVGMAGKDILSNFFSGIMLYFDRPFSIGDWIRSPDRNIEGTVAEIGWRITKITTFDNRPLYVPNSLFSSISVENPGRMTNRRITTTIGLRYEDAAKVGVIVEAVREMLKNHPAIDQRQTLLVYFNQFADSSLNIMVYCFTKTTVWAEWLAAQQDVYLKIIDIVQSHGADFAFPSQTLYMDNITPPEQGR
Does B1 bind?
Result: binds
